Assay results reported in the nanobody polyreactivity screen of Harvey et al. (2022).

Test: yeast display, Sf9 membrane polyspecificity reagent, FACS + sequencing; frameworks hold sequencing errors
Method in brief: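 Using colony PCR, genes from sorted yeast display clones were amplified, then sequenced on MiSeq at 2 × 250 and filtered by CDR length. The clones had been stained with 10% biotinylated, detergent-solubilized Sf9 membrane reagent for 1 hour at 4 °C and sorted by FACS into low and high (top ~1%) gates on anti-HA and streptavidin fluorescence. Polyreactivity labels come from the gate of origin.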

Sequence | polyreactivity (PSR sort gate)
QVHLVESGGGLVQAGGSIRLSCAASGGTFSRNAMGWYRQAPGKERELVAAINSSGVSTSYADSVKGRFTISRDNAKNNVYLQMNSLKPEDTAVYYCAAETSSAEVDYWGQGTQVTVSS | low polyreactivity
QVQLVESGGGLVQAGGSLRLSCAASGSTFIRNAMGWYRPAPGKERELVAAISSSGGRTYYADSVKGRFTISRDNAKNTVYLQMNSLKPEDTAVYYCAARNARYVHTMEYWGQGTQVTVSS | high polyreactivity
QVQLVESGGGLVQAGGSLRLSCAASGITSEYNTMGWYRQAPGKERELVAGISYRGGSTYYADSVKGRFTISRDNAKNTVYLQMNSLKPEDTAVYYCAKSFKRWRYGNPDYYWGQGTQVTVSS | high polyreactivity
QVQLVESGGGLVQAGGSLRLSCAASGSIFYDNALGWYRQAPGKERELVAAIDDSDRTYYADSVKGRFTISRDNAKNTVYLQMNSLKPEDTAVYYCARDRWKWHYGYDYWGQGTQVTVSS | low polyreactivity
QVQLVESGGGLVQAGGSLRLSCAASGRIFAVNAMGWYRQAHGKERELVASISRRGGTTNYADSVKGRFTISRDNAKNTVYLKMNSLIPEDTAVYYCATRGSAWGRSYNYWGQGTQVTLSS | high polyreactivity
QVQLVESGGGLVQAGGSLRLSCAASGSIFSVYVMGWYRQAPGKESELVAAISWSDRDTYYADSVKGRFTISRDYAKNTVDFQMNSLKPVDTAVYYGAAETFDYDVYIANGSGEYDYWGQVTQVTVSS | high polyreactivity
QVQLVESGGGLVQAGGSLRLSCAATGSTIPYYAMGWYRQAPGKERELVARITSGDRTYYADSVKGRFTISRDNAKNTVYLQMNSLKPEDTADYYCNAQVHYYSWYGYWGQGTQVTVSS | high polyreactivity
QVQLVESGGGLVQAGGSLRLSCAASGRTFFKYVMGWYRQAPGKERELVAAISSGGSTNYADSVKGRFTISRDNAKNTVYLQMNSLKPEDTAVYYCATYDPARSTQGYDYWGQGTQVTVSS | high polyreactivity
QVQIVESGGGLVQAGGSLRLSCAASGRTFIGNVMGWYRQAPGKERELVAAISKSGTRTYYADSVKGRFTISRDNAKNTFYLQMNSLKPEDTAVYYCAKDHYPRTDDFGYWGQGTQVTVSS | high polyreactivity
QVQLVESGGGLVQAGGSLRLSCAASGSTVWFYAMGWYRQAPGKERELVAVISNSGSTYYADSVKGRFTISRDNAKNTVYLQMNSLKPEDTAVYYCNKDGGGDSYWYDYWGQGTQVTVSS | low polyreactivity
QVQLVESGGVLVQSGGSLRLSCAASGRTFWWYAMGWYRQAPGKERALVAGISSGGSTYYADSVKGRFTISRDNAKYTVYLQMNSLKPEDTAVYYCAKTYWYPWRASLWHEYDYWGQGTQVTVSS | low polyreactivity
QVQLVESGGGLVQAGGSLRLSCAASGRFFKSYAMGWYRQAPGKERELVAAISRSDDTTYYADSVKGRFTISRDNAKNTVYLQMNSLKPEDTAVYYCAADTWRDGDDYWGQGTQVTVSS | low polyreactivity
QVQLVESGGGLVQAGGSLRLSCAASGSIFDINAMGWYRPAPGKERELVADIRGGDSTNYADSVKGRFTISRDNATNTVYLQMNSLKPEDTAVYYSAARWRRSKYGVYPQRPYDYWGQGTQVTVSS | high polyreactivity
QVQLVESGGGLVQAGGSLRLSCAASGSTCSRNAMGWYRQAPGKERELVAAINYSGGITYYADSVKGRFTISRDNAKNTVYLQMNSLKPEDTAVYYGAAVATNVPTHGRPSRRAYDYWGQGTQVTVSS | low polyreactivity
QVQLVESGGGLVQAGGSLRLSCAASGITLIRYAMGWYRQAPGKERELVAAINSSGGNTYYADSVKGRFTISRDNAKNTVYLQMNSLKPEDTAVYYCAAKYILDIIGSLDYWGQGTQVTVSS | low polyreactivity
QVQLVDSGGGLVQAGGSLRLSCAASGITFSGYDMGWYRQAPWKERELVADITISTGSTYYADSVKGRYTISRDNAKNSVYLQMNSLKPEDTAVYYCAADWTGGFYTWYVIPYDYWGQGTQVTVSS | low polyreactivity
QVQLVESGGGLVQAGGSLRLSCAASGSIFYKNAMGWYRQAPGKERELVAAITYSGGSTYYADSVKGRFTISRDNAKNTVYLQMNSLKTEDTAVYYCAADIGVYGERREEEYDYWGQGTQVTVSS | low polyreactivity
QVQLVESGGGLVQAGGSLRISCAASGIIFSVYAMAWYRQAPGKERELVAAISYSGGRTYYADSVKGRFTISRDNAKNTVYLQMNSLKPEDTAVYYCAAGFSLYLGFEYWGQGTQVTVSS | high polyreactivity
QVQLVESGGALVQAGGSLRLSCAASGFTFAWYAMGWYRQAPGKERELVAAISRSGGSTYYADSVKGRFTISRDNAKNTVYLQMNSLKPEDTAVYYCATRVYSYRKAGWYDYWGQGTQVTVSS | high polyreactivity
QVQLVESGGGLVQAGGSLRLSCAASGFTFQRNAMGWYRPAPGKERELVAAISKSGGSTYYADSVKGRFTISRDNAKNTVYLQMNSLKPEDTAVYYCARDRGYQSGYDYWGQGTQVTVSS | high polyreactivity
QVQLVESGGGLVQAGGSLRLSCAASGITFRAYALGWYRQAPGKEREFVAAISWRGGSTYYADSVKGRFTISRDNAKNTVYLQMNSLKPEDTAVYYCAVGSYDHDYWYEYWGQGTQVTVSS | high polyreactivity
QVQLVESGGGLVQAGGSLRLSCAASGSIFIYYTMGWYRQAPGKEREFVASISWRGGRTYYADSVKGRFTISRDNAKNTVYLQMNSLKPEETAVYYCAAEQSRGIEFSYYSLYYWGQGTQVTVSS | high polyreactivity

Sequence | polyreactivity (PSR sort gate)
QVQLVESGGGLVQAGGSLRLSCAASGFTQEDYTMGWYRQAPGQERELVARITSGGSTNYADSVKGRFTISRDNGKNTDYLQMNSLKADETAVYYCNARYAWINMDYWGQGTQVTVSS | low polyreactivity
QVQLVESGGGLVQAGGSHRLSCAASGTTIDYYAMGWYRQAPGKERELVAAISWSGGSTYYADSVKGRFTFSRDNAKNTVYLQMNSLKPEDTAVYYCAADSAFYTGSDYGWSDYDYWGQGTQVTVSS | low polyreactivity
QVQLVESGGGLVQAGGSLRLSCAASGSTFTPYVMGWYRQAPGKERELVAAIRRRGGSTYYADSVKGRFTISRDNAKNSVYLQMNSLKPEDTAVYYCATDWSWLSLKFDYWGQGTQVTVSS | high polyreactivity
QVQLVESGGGLDHAGGSLRLSCAASGRTFLGYAMGWYRQAPGKERELVAAISSSGGSTYYADSVKGLFTISRDNAKNTVYLQTNSLKPEDTAVYYCAKRKPATCASGHRFGYWGQGTQVTVSS | high polyreactivity
QVQLVESAGGLVQAGGSLRLSCAASGFIFGGNAMGWYRQAPGKERELVAAITARSGSTYYADSVKGRFTISRDNAKNTVYLQMNSLKPEDTAVYYCATPVYRSTYEYDYWGQGTQVTVSS | low polyreactivity
QVQLVESGGGLVQAGGSLRLSCAASGRIFSYYAMGWYRHAPWKERELVAAISRSGAKTYYADSVKGRFTISRDNAKNSVYLQMNSLKPEDTAVYYCNADTLRRRYNYWGQGTQVTVSS | high polyreactivity
QVQLVESGGGLVQAAGSLRLSCATSGFTFVSNAMGRYRQPHGKQRELVAAITKRRSGSTYYADSVKGRFTISRDNAKNTVYLQMNSLKPEDTAVYYCDRVPDTDGEYWGQGTQVTVSS | high polyreactivity
HVQLQERAAWCRRAGSLRQSCAASGNISHYYFMGWYRQAPGKERELVAAIAPGSNTYYADSVKGRFTISRDNAKNTVYLQMNSLKPEDTAVCFCAANSTQYTWFDYWGQGTQVPVSS | low polyreactivity
QVQLVESGGGLVQAGGSLRLSCAASGITSQTYAMGWYRQAPGKERELVAGISASGGRTFYADSVKGRFTFSRDHAKNTVYLQMNSLKPEDTAVYYCNKLSSDSYNYWGQGTQVTVSS | high polyreactivity
QVQLVESGGGLVQAGGSLRLSCASSGSTFVPNTLGWYRQAPGKERELVAAISRSGGSTYYADSVKGRFTISRDNAKNTVYLQMNSLKPEDTAVYYCAARRFGYQGFAYGYWGQGTQVTVSS | high polyreactivity
QVQLVETGGGLVQAGGSLRLSCAASGRTYRFNAMGWYRQAPGKERELVASINSGVRTYYADSVKGRFTISRDNAKNTVYLQMNSLKPEDSAVYYCAARYRVRYYERDYWGQGTQVTVSS | high polyreactivity
QVQLVDSVGRLVQAGGSLRLSCAASGSTFVGYAMGWYRHAPGKEREMDADIDSIGGSTYYADSVKGRFTISRDNAKNTVYLQMNILKPEDTAVYYCAARRYDTALVLYDYWGQGTQVTVSS | low polyreactivity
QVQLVESGGGLVQAGGSLRLSCAASGSIFGGYAMGWYRQAPGKERELVATITRGGSTYYADSVKGRFTISRDNAKNTVYFQMNSLKPEDTAVYYCAARLRSKTYYTLEFDYWGQGTQVTVSS | high polyreactivity
QVQLVESGGGLVQAGGRLRLSCAASGSTITYYTMGWYRQAPGKERELVAAISGSGGRTYYADSVKGRFTISRDNAKNTVYLQMNSLKPEDTAVYYCAAVYQLSRYDYWGQGTQVTVSS | high polyreactivity
QVQLVESGRGLVQAGGSLRLSCAASGSTCEGNAMGWYRQAPGKEELVAAISWSSDSTYNADSVKGRFTISRDNAKNTVYLQMNSLKPEDTAVYYCAAAIPGKYSNDYWGQGTQVTVSS | high polyreactivity
QVQLVESGGGIVQAGGSLRLSCAASGRIFTRNAMGWYRQAPGKERELVAAISYSGGTTYYADSVKGRFTISRDNAKNTVYLQMNSLKPEDTAVYYCAALRPTQRYFTYDYWGQGTQVTVSS | high polyreactivity
QGQLVESGGGLVQAGGSLRLTCAASGSTFRWNVMGWYRQAPGKERELVAAISSTGDNTYYADSVKGRFTISRDNAKNTGYLQMNSLKPEDTAVYYCAAGRGARDRARKHGYWGQGTQVTVSS | high polyreactivity
QVQLVESGGGLVQAGGSLRLSCAASGFIFRGYTMGWYRQAPGKERELVAAITTTSSTYYADSVKGRFTISRDNAKNTVYLQMNSLKPEDTAVYYCAALFYRYGYLYNYWGQGTQVTVSS | high polyreactivity
QVQLVESGGGLDQAGGSLRLSCAASGSIFRWYAMGWYRQAPGKEREFVAAITSSGGSTYYADSVKGRFTISRDTAKNTVYLQINSVKPEDTAVYYCNRRYQPYSYDYWGEGTQVTVSS | high polyreactivity
QVQLVESGGGLVQAGGSLRLSSAASGSIFLYNAMGWYRQAPGKERELVAAISGSGGRTNYADSVKGRFTISRDHAKNTVYLQMNSLKPEVTAVYYCAAGYHVFRLGYARIPLYDYWGQGTQVTVSS | low polyreactivity
QVQQQESGGGLVQAGGSLRLSCAASGTIFQLTVMGRYRQAPGKERELVASIDYGGNTNYADSVKGRFTISRDNAKNTVYLQMNRLKPEDTAVYYCSASSDSWTTHPYWGQGTQVTVSS | low polyreactivity
